The numbers were not newly measured in patent US11795217B2, “Interleukin-1 inhibition for combination treatment of pancreatic cancer cachexia” (Cedars-Sinai Medical Center, priority 2018, dated 2023), which cites them from elsewhere.

Data set [1] has as its system patients with refractory cancers.
Data set [2] relates to patients with metastatic colorectal cancer.
Data set [3] deals with patients with advanced cancer and cancer-associated symptoms. Conditions: in vivo, 7.5 mg/kg.

For bermekimab, the “patients with a positive DXA outcome as defined for the responder endpoint” value in data set [1] (61 patients) is given as 62 % of evaluable patients. Besides, the minimum effective dose in data set [1] (every 2 weeks, dose escalation study) was 3.75 mg/kg. In data set [1] (human, in vivo), the dose limiting toxicity entry is reported as “no dose limiting toxicity”, the “grade ¾ toxicities: fatigue” value was 13%, the “grade ¾ toxicities: nausea” value is listed as 13% and the “grade ¾ toxicities: proteinuria” value is 21%. Further, in data set [1] (patients with positive DXA outcome), the “average LBM (lean body mass) change” value was 2.1 ± 2.8 kg. The “response to treatment (primary outcome)” value in data set [2] (309 patients, randomized 2:1, placebo 19%, p=0.0045) is recorded as 33%. Moreover, the “relative reduction in the number of SAEs” value in data set [2] (human, in vivo) is 26%. In data set [3], the drug-related toxicities entry is “no definite drug-related toxicities”.
